Assay [1] has as its target T1, Peptide No. 1, pS46, H-GLKE(pS)PLQT-OH (human, SMILES CC(C)C[C@H](NC(=O)CN)C(=O)N[C@@H](CCCCN)C(=O)N[C@@H](CCC(=O)O)C(=O)N[C@@H](COP(=O)(O)O)C(=O)N1CCC[C@H]1C(=O)N[C@@H](CC(C)C)C(=O)N[C@@H](CCC(N)=O)C(=O)N[C@H](C(=O)O)[C@@H](C)O).
T1 peptide: H-GLKE[pS]PLQT-OH
Put plainly: ELISA, coated peptide. In outline: (§1)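 Wells were coated overnight at 4 °C with 50 μL of peptide, or its bovine serum albumin or keyhole limpet hemocyanin conjugate, at 1 μg/mL in cold PBS, then blocked overnight at 4 °C with 3% BSA-PBS. Purified antibody at 150 ng/mL in 3% BSA-PBS was applied for 90 minutes at room temperature, followed by alkaline phosphatase-labelled goat anti-human IgG (H+L) diluted 2000-fold for 60 minutes. Antibody binding was recorded as absorbance. After 40 minutes of pNPP development, plates were read at 405 nm against a 550 nm reference.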

The target of assay [2] is T2, Peptide No. 4, pT212/pS214, H-GCGSPGTPGSRSR(pT)P(pS)LPTPPTREPK-OH (human, phosphothreonine (pT) at peptide position 14 (tau Thr212); phosphoserine (pS) at peptide position 16 (tau Ser214)).
T2 peptide: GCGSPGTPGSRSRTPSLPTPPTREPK
Put plainly: ELISA, coated peptide. The method in brief: as §1
In general terms: An ELISA detects its analyte on a solid surface through an enzyme-linked reagent.

The target in assay [3] is T3, Peptide No. 5, pT217, H-GC-GSRSRTPSLP(pT)PPTREPKKVAVV-OH (human, phosphothreonine (pT) at peptide position 13 (tau Thr217)).
T3 peptide: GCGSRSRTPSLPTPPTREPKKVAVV
The experiment in a line: ELISA, coated peptide. The method in brief:
as §1

Assay [4] concerns the target T4, Peptide No. 7, pS396/pS400/pS404, H-GC-RENAKAKTDHGAEIVYK(pS)PVV(pS)GDT(pS)PRHL-OH (human, phosphoserine (pS) at peptide positions 20, 24 and 28 (tau Ser396, Ser400, Ser404)).
T4 peptide: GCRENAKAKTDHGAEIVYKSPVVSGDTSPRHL
Put plainly: ELISA, coated peptide. The method in brief:
as §1

In assay [5] the target is T5, Peptide No. 3, pS202, H-SSPG(pS)PGTPC-OH (human, SMILES C[C@@H](O)[C@H](NC(=O)CNC(=O)[C@@H]1CCCN1C(=O)[C@H](COP(=O)(O)O)NC(=O)CNC(=O)[C@@H]1CCCN1C(=O)[C@H](CO)NC(=O)[C@@H](N)CO)C(=O)N1CCC[C@H]1C(=O)N[C@@H](CS)C(=O)O).
T5 peptide: H-SSPG[pS]PGTPC-OH
The experiment in a line: ELISA, coated peptide. The method in brief:
as §1

Assay [6] has as its target T6, Peptide No. 6, pT231, H-KVAVVR(pT)PPKSPS-OH (human).
T6 peptide: H-KVAVVR[pT]PPKSPS-OH
Put plainly: ELISA, coated peptide. In outline: as §1

For assay [7], the target named is T7, Peptide No. 8, pS412, H-NV(pS)STGSC-OH (human, SMILES CC(C)[C@H](NC(=O)[C@@H](N)CC(N)=O)C(=O)N[C@@H](COP(=O)(O)O)C(=O)N[C@@H](CO)C(=O)N[C@H](C(=O)NCC(=O)N[C@@H](CO)C(=O)N[C@@H](CS)C(=O)O)[C@@H](C)O).
T7 peptide: H-NV[pS]STGSC-OH
Put plainly: ELISA, coated peptide. In outline:
as §1

Assay [8] addresses T8, Peptide No. 2, pS199, H-SGYS(pS)PGSPGC-OH (human, SMILES N[C@@H](CO)C(=O)NCC(=O)N[C@@H](Cc1ccc(O)cc1)C(=O)N[C@@H](CO)C(=O)N[C@@H](COP(=O)(O)O)C(=O)N1CCC[C@H]1C(=O)NCC(=O)N[C@@H](CO)C(=O)N1CCC[C@H]1C(=O)NCC(=O)N[C@@H](CS)C(=O)O).
T8 peptide: H-SGYS[pS]PGSPGC-OH
The experiment in a line: ELISA, coated peptide. The method in brief:
as §1

Assay [9] concerns the target T9, His-tagged non-phosphorylated tau protein 4R0N (human, UniProt P10636 2-758).
T9 construct: Produced by Escherichia coli; negative control in SPR; also called ATGen Cat. No. ATGP0795
The experiment in a line: SPR Biacore T200, antigen immobilized. The protocol: The binding affinities of the hyperphosphorylated tau protein 4R2N (hpTau), non-phosphorylated tau protein 4R0N, monophosphorylated tau peptide 1×P, triphosphorylated tau peptide 3×P, and non-phosphorylated tau peptide Non P with each antibody were measured with an SPR system Biacore T200 (GE Healthcare Japan), in accordance with the instruction manual for evaluation attached to the system.
The His-tagged hpTau or Tau proteins were each immobilized on a sensor chip using an HBS-N buffer (code No. BR-1003-69) as the immobilization reaction solution and allowing a nickel chloride solution to react with the NTA sensor chip for bonding Ni to NTA. Subsequently, the sensor chip was activated with a mixed solution of N-ethyl-N′-(3-dimethylaminopropyl)-carbodiimide hydrochloride (1-ethyl-3-(3-dimethylaminopropyl)carbodiimide hydrochloride: EDC) and N-hydroxysuccinimide (NHS). A solution of each of the His-tagged proteins, adjusted to a concentration of 100 to 500 ng/mL with a 4-(2-hydroxyethyl)-1-piperazineethanesulfonic acid (HEPES) buffer (0.01 M HEPES, 150 mM KCl, 2 mM DTT, 1 mM EDTA, pH 7.2), was applied to the sensor chip, whereby the protein was immobilized on the sensor chip through covalent bonds with the Ni-NTA. The remaining active NHS was blocked with ethanolamine, and Ni ions were removed with an EDTA solution (Ni-affinity amine coupling: see International Publication No. WO2005/022156). The antigen peptides (1×P, 3×P, and Non P) were each immobilized on a sensor chip by activating the NTA sensor chip with a mixed solution of N-ethyl-N′-(3-dimethylaminopropyl)-carbodiimide (EDC) hydrochloride and N-hydroxysuccinimide (NHS), and then applying a solution of the antigen peptide diluted with a 10 mM sodium acetate buffer (pH: 4 to 4.5) to 1 to 10 μM to the sensor chip, whereby the peptide was covalently bound to the sensor chip. The remaining active NHS was blocked with ethanolamine. Thus, sensor chips immobilized respectively with the proteins and peptides mentioned above were produced.
A CAPS buffer (pH 10.5) was applied to these sensor chips at 37° C. to stabilize the protein- or peptide-immobilized surfaces of the sensor chips.

Results on 5 molecules are retold here after US20180346564A1 (TEIJIN PHARMA, published 2018).

[ ]: non-standard residue; d: D form. pT = C[C@@H](OP(=O)(O)O)[C@H](N)C(=O)O; pS = N[C@@H](COP(=O)(O)O)C(=O)O

T9 sequence (P10636 other isoform, or with tags, fused parts or gaps limits assumed): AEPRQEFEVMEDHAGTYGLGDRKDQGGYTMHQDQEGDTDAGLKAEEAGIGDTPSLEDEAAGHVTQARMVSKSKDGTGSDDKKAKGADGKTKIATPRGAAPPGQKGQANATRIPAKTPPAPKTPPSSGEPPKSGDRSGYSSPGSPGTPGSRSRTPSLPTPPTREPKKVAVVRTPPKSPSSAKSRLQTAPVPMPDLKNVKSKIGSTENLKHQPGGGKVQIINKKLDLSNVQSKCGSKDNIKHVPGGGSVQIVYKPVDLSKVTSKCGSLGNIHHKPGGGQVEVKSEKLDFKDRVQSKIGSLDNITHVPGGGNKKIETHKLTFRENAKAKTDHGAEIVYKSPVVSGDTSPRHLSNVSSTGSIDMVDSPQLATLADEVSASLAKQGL

B1: humanized antibody L48H12 (antibody, human IgG1, kappa, V domains shown)
VH: EVQLVESGGGLVQPGGSLRLSCAASGFAFNSFALNWVRQAPGKGLEWVGHIRSKTNNYATFYADSVKDRFTVSRDDSKNTAYLQMNSLKTEDTATYYCVRRGPRDSWFGYWGQGTLVTVSS
VL: DIVMTQSPLSLPVTLGDPASISCRSSQNIVHSNGNTYLEWYQQKPGQSPQLLIYTVSNRFSGVPDRFSGSGSGTDFTLKISRVEAEDLGVYYCFQGSHLPLTFGGGTKVEIKR
notes: VL48/VH12, human IgG1/kappa
For B1, the binding result in assay [1], in assay [2], in assay [3], in assay [4], in assay [5] and in assay [6] was “no binding (tested: OD value <0.5; antibody 150 ng/mL)” in each case. Further, the figures for the binding result in [7], in [8] and in assay [9] were “no binding (tested: OD value <0.5; antibody 150 ng/mL)”, “no binding (tested: OD value <0.5; antibody 150 ng/mL)” and “no binding (tested: 0.2 to 1 nM)”, respectively.

B2: humanized antibody L48H47 (antibody, human IgG1, kappa, V domains shown)
VH: EVQLVESGGGLVQPGGSLRLSCAASGFAFNSFALNWVRQAPGKGLEWVGHIRSKTNNYATFYAASVKDRFTVSRDDSQNTAYLQMNSLKTEDTATYYCVRRGPRDSWFGYWGQGTLVTVSS
VL: DIVMTQSPLSLPVTLGDPASISCRSSQNIVHSNGNTYLEWYQQKPGQSPQLLIYTVSNRFSGVPDRFSGSGSGTDFTLKISRVEAEDLGVYYCFQGSHLPLTFGGGTKVEIKR
notes: VL48/VH47, human IgG1/kappa
B2: the binding result in assay [1], in assay [2], in assay [3], in assay [4], in [5] and in assay [6] was “no binding (tested: OD value <0.5; antibody 150 ng/mL)” throughout. In addition, the binding result in assay [7] was “no binding (tested: OD value <0.5; antibody 150 ng/mL)”; in assay [8] it was “no binding (tested: OD value <0.5; antibody 150 ng/mL)”; in assay [9], “no binding (tested: 0.2 to 1 nM)”.

B3: humanized antibody L48H61 (antibody, human IgG1, kappa, V domains shown)
VH: EVQLVESGGGLVQPGGSLRLSCAASGFTFNSFALNWVRQAPGKGLEWVVHIRSKTNNYATFYADSVKDRFTVSRDDSKNTAYLQMNSLKTEDTATYYCVRRGPRDSWFGYWGQGTLVTVSS
VL: DIVMTQSPLSLPVTLGDPASISCRSSQNIVHSNGNTYLEWYQQKPGQSPQLLIYTVSNRFSGVPDRFSGSGSGTDFTLKISRVEAEDLGVYYCFQGSHLPLTFGGGTKVEIKR
notes: VL48/VH61, human IgG1/kappa
Regarding B3, the binding result in assay [1], in assay [2], in assay [3], in [4], in [5] and in assay [6] was “no binding (tested: OD value <0.5; antibody 150 ng/mL)” in each case. Also, the binding result was “no binding (tested: OD value <0.5; antibody 150 ng/mL)” in assay [7], “no binding (tested: OD value <0.5; antibody 150 ng/mL)” in assay [8] and “no binding (tested: 0.2 to 1 nM)” in [9].

B4: humanized antibody L48H64 (antibody, human IgG1, kappa, V domains shown)
VH: EVQLVESGGGLVQPGGSLRLSCAASGFTFNSFALNWVRQAPGKGLEWVVHIRSKTNNYATFYAASVKDRFTVSRDDSQNTAYLQMNSLKTEDTATYYCVRRGPRDSWFGYWGQGTLVTVSS
VL: DIVMTQSPLSLPVTLGDPASISCRSSQNIVHSNGNTYLEWYQQKPGQSPQLLIYTVSNRFSGVPDRFSGSGSGTDFTLKISRVEAEDLGVYYCFQGSHLPLTFGGGTKVEIKR
notes: VL48/VH64, human IgG1/kappa
Take B4: the binding result in assay [1], in [2], in assay [3], in assay [4], in assay [5] and in assay [6] was “no binding (tested: OD value <0.5; antibody 150 ng/mL)” throughout. Also, the binding result in assay [7] is on record as “no binding (tested: OD value <0.5; antibody 150 ng/mL)”; in [8] it was “no binding (tested: OD value <0.5; antibody 150 ng/mL)”; in [9], “no binding (tested: 0.2 to 1 nM)”.

B5: humanized antibody L48H62 (antibody, human IgG1, kappa, V domains shown)
VH: EVQLVESGGGLVQPGGSLRLSCAASGFAFNSFALNWVRQAPGKGLEWVVHIRSKTNNYATFYADSVKDRFTVSRDDSKNTAYLQMNSLKTEDTATYYCVRRGPRDSWFGYWGQGTLVTVSS
VL: DIVMTQSPLSLPVTLGDPASISCRSSQNIVHSNGNTYLEWYQQKPGQSPQLLIYTVSNRFSGVPDRFSGSGSGTDFTLKISRVEAEDLGVYYCFQGSHLPLTFGGGTKVEIKR
notes: VL48/VH62, human IgG1/kappa
As for B5, the binding result in [1], in assay [2], in [3], in [4], in assay [5] and in assay [6] was “no binding (tested: OD value <0.5; antibody 150 ng/mL)” throughout. In addition, the results for the binding result in assay [7], in assay [8] and in [9] were “no binding (tested: OD value <0.5; antibody 150 ng/mL)”, “no binding (tested: OD value <0.5; antibody 150 ng/mL)” and “no binding (tested: 0.2 to 1 nM)”, respectively.
